Laboratory results as given in patent US9539338B2, “Polymer-based protein engineering methods to rationally tune enzyme activity, pH-dependence and stability” (Carnegie Mellon University, priority 2013, dated 2017).

Experiments:
Suc-AAPF-pNA = molecular target: T1, Suc-AAPF-pNA (Bos taurus, UniProt P00766); assay: Enzyme kinetic assay: hydrolysis of Suc-AAPF-pNA at pH 5-10 (native CT, CT-PDMAEMA conjugates); type: biochemical
T1 construct: purchased Sigma Aldrich; host or cells: bovine pancreas
Experimental: N-Succinyl-Ala-Ala-Pro-Phe p-nitroanilide (0 to 50 μL of 9.60 mM in DMSO) was added to sodium phosphate buffer (990 to 940 μL of 100 mM, pH 5-10). Native CT or conjugates solution (10 μL of 4.0 μM) was added to the substrate solution. The initial rate of hydrolysis of the peptide substrate was monitored by recording the increase in absorption at 412 nm using a UV-VIS spectrometer. The Michaelis-Menten parameters (kcat, Km and kcat/Km) were determined by non-linear curve fitting (equation for Michaelis-Menten parameters) of plots of initial rate versus substrate concentration using the Enzfitter software.

[1] = molecular target: T2, Bowman-Birk trypsin-chymotrypsin inhibitor from glycine max (GM) (Glycine max, UniProt P01055); assay: Inhibitor binding study with Bowman-Birk inhibitor from glycine max; type: biochemical, glycine max (soybean); details: for Apparent Vmax / KM/Vmax: pH 8.0
T2 construct: purchased Sigma Aldrich; bovine pancreas for chymotrypsin
Experimental: FIGS. 24A and B show (A) Substrate/initial velocity plots and (B) secondary plots to determine inhibitor constant for native chymotrypsin with GM in 0.1 M sodium phosphate buffer (pH 8) at 25° C. […]
FIGS. 25A and B show (A) Substrate/initial velocity plots and (B) secondary plots to determine inhibitor constant for chyomtrypsin-pQA200 with GM in 0.1 M sodium phosphate buffer (pH 8) at 25° C. […]
Enzyme inhibition was assayed by measuring the hydrolytic activities of samples which contained a fixed concentration of protease and varying amounts of inhibitor, including a blank with no inhibitor. Inhibitors and peptide substrate were simultaneously added to the native and conjugate solutions immediately before measuring initial rates. The initial rate of hydrolysis of the peptide substrate was monitored by recording the increase in absorption at 412 nm. To determine dissociation constant of the enzyme-inhibitor complexes (Ki), Vmax app and KM app were determined by non-linear curve fitting (equation for Michaelis-Menten parameters) of plots of initial rate versus substrate concentration using the Enzfitter software. The dissociation constants were calculated from secondary plot of KM app/Vmax app versus initial inhibitor concentration.

[2] = Thermal stability at 37° C., pH 8.0; type: physicochemical; details: 8 hours incubation at 40 μM, 0.1 M sodium phosphate pH 8.0, 37° C.
Experimental: Native CT and CT-conjugates (40 μM) were dissolved in 0.1 M sodium phosphate buffer (pH 8.0) and incubated in a water bath in 50 μL aliquots at 37° C. At specified time points, aliquots were removed and diluted to 4 μM using 0.1 M sodium phosphate buffer (pH 8.0). Residual activity, measured in 0.1 M sodium phosphate buffer (pH 8.0) at 25° C., was calculated as the ratio of activity remaining relative to the activity at time zero. Substrate (Suc-AAPF-pNA) concentration was kept constant at 288 μM for each sample and time point. Native CT and conjugate activities were measured in duplicate at each time point.

[3] = In vitro gastric acid stability, 167 mM HCl, 37° C.; type: physicochemical; details: 167 mM HCl (pH 1), 3 hours
Experimental: Native CT and CT-conjugates were incubated at 4 μM in 167 mM HCl at 37° C. in 50 μL aliquots. Aliquots were removed at specified time points and residual activity was measured at 25° C. in 0.1 M sodium phosphate buffer (pH 8.0) with Suc-AAPF-pNA as substrate (288 μM). Each time point was measured in duplicate and residual activity was calculated as the ratio of activity remaining from time zero.

pepsin = molecular target: T3, pepsin (Sus scrofa, UniProt P00791); assay: Stability to pepsin degradation; type: in vitro ADME, porcine; details: 167 mM HCl, 37° C.
T3 construct: purchased Sigma Aldrich; host or cells: porcine stomach mucosa
T3 sequence (P00791 60-385): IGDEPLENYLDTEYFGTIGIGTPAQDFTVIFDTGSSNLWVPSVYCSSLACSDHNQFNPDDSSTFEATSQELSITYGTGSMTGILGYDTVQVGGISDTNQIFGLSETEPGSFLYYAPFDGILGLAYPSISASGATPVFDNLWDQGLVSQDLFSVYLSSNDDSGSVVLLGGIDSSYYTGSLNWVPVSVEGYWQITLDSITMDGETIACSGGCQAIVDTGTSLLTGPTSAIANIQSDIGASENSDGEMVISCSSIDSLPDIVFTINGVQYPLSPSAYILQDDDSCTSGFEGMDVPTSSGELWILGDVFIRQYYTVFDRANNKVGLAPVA
Experimental: Native CT and CT-conjugates (4 μM) were incubated in 167 mM HCl with 16 nM pepsin at 37° C. in 50 μL aliquots. Samples were retrieved at specified time points and residual activity was measured in 0.1 M sodium phosphate buffer (pH 8.0) at 25° C. with Suc-AAPF-pNA as substrate (288 μM). Each time point was measured in duplicate and residual activity was calculated as the ratio of activity remaining from time zero. As a control, pepsin (16 nM) bioactivity towards Suc-AAPF-pNA was measured at pH 8.0 and no product formation was observed.

[4] = Size measurements during 167 mM HCl (pH 1) incubation; type: physicochemical
Experimental: CT conjugates (4 μM) and native CT (29 μM) passed through a […] cellulose filter were incubated in 167 mM HCl at 37° C. in 1 mL aliquots. Aliquots were removed from incubation at each specified time point. Hydrodynamic diameter was then determined using a Malvern zetasizer nano-ZS at 25° C. Intensity PSD measurements, averaged over five sample runs at each time point, were used to calculate hydrodynamic diameter (Dh).

[5] = pH 5.0, 100 mM sodium phosphate
[6] = pH 6.0, 100 mM sodium phosphate
[7] = pH 7.0, 100 mM sodium phosphate
[8] = pH 8.0, 100 mM sodium phosphate
[9] = pH 9.0, 100 mM sodium phosphate
[10] = pH 10.0, 100 mM sodium phosphate

“α-Chymotrypsin (CT) from bovine pancreas (type II) [Native CT]” gave a Km (Suc-AAPF-pNA; [5]) of 212 µM, a kcat (Suc-AAPF-pNA; [5]) of 2.28 ± 0.36 s⁻¹ and a Km (Suc-AAPF-pNA; [6]) of 189 µM. For the same substance, the kcat (Suc-AAPF-pNA; [6]) was 12.13 s⁻¹, the Km (Suc-AAPF-pNA; [7]) was 84.1 µM and the kcat (Suc-AAPF-pNA; [7]) was 21.54 s⁻¹. It also gave a Km (Suc-AAPF-pNA; [8]) of 55.2 µM, a kcat (Suc-AAPF-pNA; [8]) of 26.67 s⁻¹ and a Km (Suc-AAPF-pNA; [9]) of 104 µM. It also gave a kcat (Suc-AAPF-pNA; [9]) of 29.49 s⁻¹, a Km (Suc-AAPF-pNA; [10]) of 258 µM and a kcat (Suc-AAPF-pNA; [10]) of 27.69 s⁻¹. For the same substance, the “GM Ki, fold higher than chymotrypsin-pQA198” value ([1]; GM) was about 4 fold, the “Apparent Vmax” value ([1]; GM [I]0 0 mM, 25° C.) was 1.10 mM/s and the KM/Vmax ([1]; GM [I]0 0 µM, 25° C.) was 71.8 s⁻¹. It also gave a KM/Vmax ([1]; GM [I]0 0.049 µM, 25° C.) of 90.4 s⁻¹, a KM/Vmax ([1]; GM [I]0 0.098 µM, 25° C.) of 102.2 s⁻¹ and a KM/Vmax ([1]; GM [I]0 0.147 µM, 25° C.) of 150.1 s⁻¹. The KM/Vmax ([1]; GM [I]0 0.196 µM, 25° C.) was 159.9 s⁻¹, the KM/Vmax ([1]; GM [I]0 0.294 µM, 25° C.) was 188.0 s⁻¹ and the “Apparent Vmax” value ([1]; GM [I]0 0.049 mM, 25° C.) was 1.05 mM/s. For the same substance, the “Apparent Vmax” value ([1]; GM [I]0 0.098 mM, 25° C.) was 1.18 mM/s, the “Apparent Vmax” value ([1]; GM [I]0 0.147 mM, 25° C.) was 1.21 mM/s and the “Apparent Vmax” value ([1]; GM [I]0 0.196 mM, 25° C.) was 1.23 mM/s. For the same substance, the “Apparent Vmax” value ([1]; GM [I]0 0.294 mM, 25° C.) was 1.14 mM/s, the Ki ([1]; inhibitor Glycine Max, 25° C.) was 0.172 µM and the activity lost [2] was “lost half of its activity”. The activity maintained [3] was “complete activity loss”, the “time after which all activity was lost” value (pepsin) was 75 min and the “increase of hydrodynamic diameter (Dh)” value ([4]; 37° C., after 2 hours) was 9 fold. The “hydrodynamic diameter Dh at time zero” value ([4]; time zero) was 6.3±0.5 nm.
